Data taken from patent publication US6558661 (Genentech, dated 2003).

B1: recombinant murine IFN-γ (ligand, UniProt P01580 23-155, looked up)
chain: HGTVIESLESLNNYFNSSGIDVEEKSLFLDIWRNWQKDGDMKILQSQIISFYLRLFEVLKDNQAISNNISVIESHLITTFFSNSKAKKDAFMSIAKFEVNNPQVQRQAFNELIRVVHQLLPESSLRKRKRSRC
modifications: radioiodinated with 125I using lactoperoxidase in the binding assays and ligand blots; unlabeled as competitor and in cell assays
notes: also called mIFN-γ
B2: murine IFN-γ receptor-IgG-1 immunoadhesin (mIFNγR-IgG-1) (Fc fusion, UniProt P15261 26-254, looked up, not shown: a dimerising Fc or GST)
chain: ALTSTEDPEPPSVPVPTNVLIKSYNLNPVVCWEYQNMSQTPIFTVQVKVYSGSWTDSCTNISDHCCNIYEQIMYPDVSAWARVKAKVGQKESDYARSKEFLMCLKGKVGPPGLEIRRKKEEQLSVLVFHPEVVVNGESQGTMFGDGSTCYTFDYTVYVEHNRSGEILHTKHTVEKEECNETLCELNISVSTLDSRYCISVDGISSFWQVRTEKSKDVCIPPFHDDRKDS
B3: human IFN-γ receptor-IgG-1 immunoadhesin (hIFNγR-IgG-1) (Fc fusion, not shown: a dimerising Fc or GST)
chain: EMGTADLGPSSVPTPTNVTIESYNMNPIVYWEYQIMPQVPVFTVEVKNYGVKNSEWIDACINISHHYCNISDHVGDPSNSLWVRVKARVGQKESAYAKSEEFAVCRDGKIGPPKLDIRKEEKQIMIDIFHPSVFVNGDEQEVDYDPETTCYIRVYNVYVRMNGSEIQYKILTQKEDDCDEIQCQLAIPVSSLNSQYCVSAEGVLHVWGVTTEKSKEVCITIFNSSIKG
B4: recombinant human IFN-γ (ligand, UniProt P01579 24-166, looked up)
chain: QDPYVKEAENLKKYFNAGHSDVADNGTLFLGILKNWKEESDRKIMQSQIVSFYFKLFKNFKDDQSIQKSVETIKEDMNVKFFNSNKKKRDDFEKLTNYSVTDLNVQRKAIHELIQVMAELSPAAKTGKRKRSQMLFRGRRASQ
modifications: radioiodinated with 125I using lactoperoxidase in the binding assays and ligand blots; unlabeled as competitor and in cell assays
notes: also called hIFN-γ

Legend:
[1] = biological target: B2; experiment: equilibrium binding of [125I]mIFN-γ to immunoadhesin immobilized on anti-human IgG Fc coated wells, Scatchard analysis
Experimental: (§1) IFNv binding assays. The binding of IFNγR-IgGs to IFN-γ was analyzed essentially as described [Ashkenazi et al., *Proc. Natl. Acad. Sci. USA* 88: 10535–10539 (1991)]. Each IFNγR-IgG (1 μg/ml) was immobilized onto microtiter wells coated with goat anti-human IgG Fc antibody. […] Nonspecific binding was determined by omitting IFNγR-IgGs.
(§2) Binding of IFNγR-IqG to IFN-γ. We investigated the binding of the human and murine immunoadhesins to IFN-γ by equilibrium binding analysis (FIG. 2). […] 135: 300–305 (1985); Ucer, et al, Int. J. Cancer 36: 103–108 (1985)].

[2] = biological target: B3; experiment: competition binding assay with [125I]hIFN-γ on immobilized hIFNγR-IgG (data not shown)
Experimental: as §1, §2

[3] = biological target: B1; experiment: cell-based or functional assay
[4] = biological target: B4; experiment: cell-based or functional assay
[5] = biological target: B2; experiment: competition binding assay with [125I]mIFN-γ on immobilized mIFNγR-IgG (data not shown)
Experimental: as §1, §2

[6] = biological target: B3; experiment: equilibrium binding of [125I]hIFN-γ to immunoadhesin immobilized on anti-human IgG Fc coated wells, Scatchard analysis
Experimental: as §1, §2

B1
Kd [1]: 3.3 nM
binding result [2]: no binding

B2
inhibition of mIFN-γ antiviral effect in EMCV-infected mouse L929 cells, IC50 [3]: ~10 nM
inhibition of mIFN-γ induction of class I MHC antigen H-2Kk in mouse L929 cells, IC50 [3]: ~10 nM

B3
inhibition of hIFN-γ antiviral effect in EMCV-infected human A549 cells, IC50 [4]: ~8 nM
inhibition of hIFN-γ induction of ICAM-1 in human HeLa cells, half-maximal inhibition (IC50) [4]: ~13 nM

B4
binding result [5]: no binding
Kd [6]: 1.5 nM
